Substitutions are numbered along the chain they refer to.
Legend:
[1] = biological target: T1, KRAS G12D peptide on HLA-A*11:01 (human); experiment: multimer staining
T1 peptide: VVVGADGVGK

[2] = biological target: T2, KRAS G12V peptide on HLA-A*02:01 (human); experiment: multimer staining
T2 peptide: KLVVVGAVGV

B1: TCR1 (TCR, V domains shown)
Valpha: AQKVTQAQTEISVVEKEDVTLDCVYETRDTTYYLFWYKQPPSGELVFLIRRNSFDEQNEISGRYSWNFQKSTSSFNFTITASQVVDSAVYFCALSEVTGAGSYQLTFGKGTKLSVIP
Vbeta: DGGITQSPKYLFRKEGQNVTLSCEQNLNHDAMYWYRQDPGQGLRLIYYSQIVNDFQKGDIAEGYSVSREKKESFPLTVTSAQKNPTAFYLCASSIGAGQHNSPLHFGNGTRLTVT
binding result [1]: recognises

B2: TCR2 (TCR, V domains shown)
Valpha: AQKVTQAQTEISVVEKEDVTLDCVYETRDTTYYLFWYKQPPSGELVFLIRRNSFDEQNEISGRYSWNFQKSTSSFNFTITASQVVDSAVYFCALSEGSNYKLTFGKGTLLTVNP
Vbeta: EAGVAQSPRYKIIEKRQSVAFWCNPISGHATLYWYQQILGQGPKLLIQFQNNGVVDDSQLPKDRFSAERLKGVDSTLKIQPAKLEDSAVYLCASSSTGGTGETQYFGPGTRLLVL
binding result [1]: recognises

B3: TCR3 (TCR, V domains shown)
Valpha: AQKITQTQPGMFVQEKEAVTLDCTYDTSDPSYGLFWYKQPSSGEMIFLIYQGSYDQQNATEGRYSLNFQKARKSANLVISASQLGDSAMYFCVGNEKLTFGTGTRLTIIP
Vbeta: KAGVTQTPRYLIKTRGQQVTLSCSPISGHRSVSWYQQTPGQGLQFLFEYFSETQRNKGNFPGRFSGRQFSNSRSEMNVSTLELGDSALYLCASSLATGGYNSPLHFGNGTRLTVT
binding result [1]: recognises

B4: TCR4 (TCR, V domains shown)
Valpha: GEDVEQSLFLSVREGDSSVINCTYTDSSSTYLYWYKQEPGAGLQLLTYIFSNMDMKQDQRLTVLLNKKDKHLSLRIADTQTGDSAIYFCAERRGNMLTFGGGTRLMVKP
Vbeta: NAGVTQTPKFRILKIGQSMTLQCTQDMNHNYMYWYRQDPGMGLKLIYYSVGAGITDKGEVPNGYNVSRSTTEDFPLRLELAAPSQTSVYFCASSRTSGLTDTQYFGPGTRLTVL
binding result [1]: recognises

B5: TCR5 (TCR, V domains shown)
Valpha: ILNVEQSPQSLHVQEGDSTNFTCSFPSSNFYALHWYRWETAKSPEALFVMTLNGDEKKKGRISATLNTKEGYSYLYIKGSQPEDSATYLCASADGANNLFFGTGTRLTVIP
Vbeta: SAVISQKPSRDICQRGTSLTIQCQVDSQVTMMFWYRQQPRQSLTLIATANQGSEATYESGFVIDKFPISRPNLTFSTLTVSNMSPEDSSIYLCSVGPSGTGPGYTFGSGTRLTVV
binding result [1]: recognises

B6: TCR6 (TCR, V domains shown)
Valpha: AQTVTQSQPEMSVQEAETVTLSCTYDTSESDYYLFWYKQPPSRQMILVIRQEAYKQQNATENRFSVNFQKAAKSFSLKISDSQLGDAAMYFCAYTNSGNTPLVFGKGTRLSVIA
Vbeta: DAGVIQSPRHEVTEMGQEVTLRCKPISGHDYLFWYRQTMMRGLELLIYFNNNVPIDDSGMPEDRFSAKMPNASFSTLKIQPSEPRDSAVYFCASKPGPRSWREGAFFGQGTRLTVV
binding result [1]: recognises

B7: TCR8 (TCR, V domains shown)
Valpha: GEDVEQSLFLSVREGDSSVINCTYTDSSSTYLYWYKQEPGAGLQLLTYIFSNMDMKQDQRLTVLLNKKDKHLSLRIADTQTGDSAIYFCAESIRDTDKLIFGTGTRLQVFP
Vbeta: GAVVSQHPSRVICKSGTSVKIECRSLDFQATTMFWYRQFPKKSLMLMATSNEGSKATYEQGVEKDKFLINHASLTLSTLTVTSAHPEDSSFYICSARDTSGTTRNEQFFGPGTRLTVL
binding result [2]: recognises

B8: TCR9 (TCR, V domains shown)
Valpha: GEDVEQSLFLSVREGDSSVINCTYTDSSSTYLYWYKQEPGAGLQLLTYIFSNMDMKQDQRLTVLLNKKDKHLSLRIADTQTGDSAIYFCAEIPGDSSYKLIFGSGTRLLVRP
Vbeta: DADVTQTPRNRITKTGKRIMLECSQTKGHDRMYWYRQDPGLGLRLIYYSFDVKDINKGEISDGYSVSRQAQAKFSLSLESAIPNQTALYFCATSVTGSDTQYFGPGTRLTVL
binding result [2]: recognises

B9: TCR10 (TCR, V domains shown)
Valpha: GEDVEQSLFLSVREGDSSVINCTYTDSSSTYLYWYKQEPGAGLQLLTYIFSNMDMKQDQRLTVLLNKKDKHLSLRIADTQTGDSAIYFCAEMKDTDKLIFGTGTRLQVFP
Vbeta: DGGITQSPKYLFRKEGQNVTLSCEQNLNHDAMYWYRQDPGQGLRLIYYSQIVNDFQKGDIAEGYSVSREKKESFPLTVTSAQKNPTAFYLCASTQVGTGELFFGEGSRLTVL
binding result [2]: recognises

B10: TCR11 (TCR, V domains shown)
Valpha: B9 Valpha
Vbeta: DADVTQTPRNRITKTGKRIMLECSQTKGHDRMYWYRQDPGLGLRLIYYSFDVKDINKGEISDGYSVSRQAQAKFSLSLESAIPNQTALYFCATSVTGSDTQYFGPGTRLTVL
binding result [2]: recognises

B11: TCR12 (TCR, V domains shown)
Valpha: B9 Valpha with M92I, K93R, D96G, T102Q, R105T, F109K
Vbeta: DVKVTQSSRYLVKRTGEKVFLECVQDMDHENMFWYRQDPGLGLRLIYFSYDVKMKEKGDIPEGYSVSREKKERFSLILESASTNQTSMYLCASSRQGTDTQYFGPGTRLTVL
binding result [2]: recognises

B12: TCR13 (TCR, V domains shown)
Valpha: B9 Valpha with M92R, K93R
Vbeta: GAVVSQHPSWVICKSGTSVKIECRSLDFQATTMFWYRQFPKQSLMLMATSNEGSKATYEQGVEKDKFLINHASLTLSTLTVTSAHPEDSSFYICSAWGANTGELFFGEGSRLTVL
binding result [2]: recognises

B13: TCR14 (TCR, V domains shown)
Valpha: AQKITQTQPGMFVQEKEAVTLDCTYDTSDPSYGLFWYKQPSSGEMIFLIYQGSYDQQNATEGRYSLNFQKARKSANLVISASQLGDSAMYFCAMRGMDSSYKLIFGSGTRLLVRP
Vbeta: DVKVTQSSRYLVKRTGEKVFLECVQDMDHENMFWYRQDPGLGLRLIYFSYDVKMKEKGDIPEGYSVSREKKERFSLILESASTNQTSMYLCATRTGQQAGSKDTDTQYFGPGTRLTVL
binding result [2]: recognises

B14: TCR15 (TCR, V domains shown)
Valpha: B7 Valpha with E91D, S92F, I93L
Vbeta: GAVVSQHPSWVICKSGTSVKIECRSLDFQATTMFWYRQFPKQSLMLMATSNEGSKATYEQGVEKDKFLINHASLTLSTLTVTSAHPEDSSFYICSARDRTSTDTQYFGPGTRLTVL
binding result [2]: recognises

B15: TCR16 (TCR, V domains shown)
Valpha: DQQVKQNSPSLSVQEGRISILNCDYTNSMFDYFLWYKKYPAEGPTFLISISSIKDKNEDGRFTVFLNKSAKHLSLHIVPSQPGDSAVYFCAVNRDDKIIFGKGTRLHILP
Vbeta: DTGVSQDPRHKITKRGQNVTFRCDPISEHNRLYWYRQTLGQGPEFLTYFQNEAQLEKSRLLSDRFSAERPKGSFSTLEIQRTEQGDSAMYLCASSSELAGGINEQFFGPGTRLTVL
binding result [2]: recognises
